{
  "source": "paper PMC5795435",
  "assay_in_all_cases": "cryo-EM structure",
  "key": {"[1]": {"target": "Bufavirus 1 (BuV1) VP2, assembled as virus-like particles (Bufavirus 1 (BuV1))"}, "[2]": {"target": "Bufavirus 2 (BuV2) VP2, assembled as virus-like particles (Bufavirus 2 (BuV2))"}, "[3]": {"target": "Bufavirus 3 (BuV3) VP2, assembled as virus-like particles (Bufavirus 3 (BuV3))"}},
  "data": [
    {"substance": "Bufavirus 1 (BuV1) VP2, assembled as virus-like particles (natural protein)", "values": [
      {"measurement": "stoichiometry N", "setting": "[1]", "value": 60}
    ]},
    {"substance": "Bufavirus 2 (BuV2) VP2, assembled as virus-like particles (natural protein)", "values": [
      {"measurement": "stoichiometry N", "setting": "[2]", "value": 60}
    ]},
    {"substance": "Bufavirus 3 (BuV3) VP2, assembled as virus-like particles (natural protein)", "values": [
      {"measurement": "stoichiometry N", "setting": "[3]", "value": 60}
    ]}
  ]
}
